Two molecules from article PMC12316933 (2025) can be followed below.

Common to all, as to assay: BLI
Test [1] addresses IN11 N2 (recombinant N2 neuraminidase head of H3N2 A/Indiana/08/2011) (Influenza A virus H3N2 A/Indiana/08/2011).
The target of test [2] is CO17 B NA (recombinant neuraminidase head of B/Colorado/06/2017, B/Victoria-lineage) (Influenza B virus B/Colorado/06/2017).
Test [3] deals with T1, PT09 N2 (recombinant N2 neuraminidase head of H3N2 A/Perth/16/2009) (Influenza A virus H3N2 A/Perth/16/2009).
T1 chain: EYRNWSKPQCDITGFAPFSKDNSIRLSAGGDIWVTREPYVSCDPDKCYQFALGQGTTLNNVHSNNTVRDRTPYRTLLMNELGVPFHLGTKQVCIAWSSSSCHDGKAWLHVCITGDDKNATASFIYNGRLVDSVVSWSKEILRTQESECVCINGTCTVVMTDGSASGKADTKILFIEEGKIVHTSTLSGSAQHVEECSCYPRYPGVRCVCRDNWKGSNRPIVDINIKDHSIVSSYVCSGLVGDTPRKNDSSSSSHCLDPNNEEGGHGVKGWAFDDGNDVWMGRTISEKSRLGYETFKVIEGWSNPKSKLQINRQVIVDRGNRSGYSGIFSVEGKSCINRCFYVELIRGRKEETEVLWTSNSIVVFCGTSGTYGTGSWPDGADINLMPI

B1: DA03E17 IgG (human monoclonal antibody) (antibody, V domains shown)
VH: EVQLVESGPGLVKPSQTLSLTCTVSGGSFSSGGYLWSWVRQHPGKGLEWIGYILYSGSPYYNPSLESRATISLDTSKNQFSLRLISVTAADAAMYYCARVDGSGNTDRYYFYGMDVWGQGTMVTVSS
VL: DIQMTQSPSSVSASVGDRVTITCRASRGIGDWLAWYQQKPGKAPKLLIYAASSLQRGVPSRFSGSGSGTDFTLTISSLQPDDFATYYCQQADGWEVWTFGQGTKVDVK
For B1, the Kd in test [1] was under 0.001 nM; in test [2], 0.969 nM; in test [3], under 0.001 nM.

B2: DA03E17 Fab (Fab, V domains shown)
VH: B1 VH
VL: B1 VL
In the case of B2, the Kd stood at 4.53 nM in test [1], 913 nM in test [2] and 31 nM in test [3].
